Reference: the supplement of paper PMC10201428
± gives the standard deviation of the averaged measurements.

Columns and labels:
[1] = system: VchCAST RNA-guided transposition machinery (E. coli BL21(DE3) host, lacZ target); assay: relative integration efficiency (T-LR orientation) vs wild-type transposon end (log2 (normalized fold change)); transposon end mutated: right end (5 bp flank + 75 bp right end); higher = more efficient transposition
Outline: (§1)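 Barcoded pools of 1549 left-end or 1849 right-end transposon variants were cloned into a pUC57 mini-transposon donor. Each pool was co-transformed with a T7-driven effector plasmid (CRISPR array, tniQ-cas8-cas7-cas6, tnsA-tnsB-tnsC) into E. coli BL21(DE3) and plated with 0.1 mM IPTG at 37°C for 18 h. Input plasmids and genomic integration junctions were PCR-amplified and Illumina-sequenced, with two biological output replicates and four wild-type barcodes as reference. Relative integration efficiency is output/input barcode abundance fold change, normalised to wild-type barcodes and log-transformed.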

[2] = system: VchCAST RNA-guided transposition machinery (E. coli BL21(DE3) host, lacZ target); assay: relative integration efficiency (T-RL orientation) vs wild-type transposon end (log2 (normalized fold change)); transposon end mutated: right end (5 bp flank + 75 bp right end); higher = more efficient transposition
Outline: as §1

| Sequence | relative integration efficiency (log2) [1] | relative integration efficiency (log2) [2] |
| --- | --- | --- |
| ACATTTGTCGATACAACCCTAAAATGATAATTACACCCATAAATTGATAATTATCACACCCAATTTAACTATAACGCTCTGATCATAGTCAGACCAACATTGCTACGACCCGTATTCGCACCGACAC | 1.04 ± 0.3 | -2.1 ± 0.33 |
| ACATTTGTCGATACAACCCTAAAATGATAATTACACCCATAAATTGATAATTATCACCCCCAATTTAACTATAACGCTCTGATCATAGTCAGACCAACATTGCTACGACCCGTATTCGCACCGACAC | 0.88 ± 0.35 | -2.33 ± 0.4 |
| ACATTTGTCGATACAACCCTAAAATGATAATTACACCCATAAATTGATCATTATCACACCCAATTTAACTATAACGCTCTGATCATAGTCAGACCAACATTGCTACGACCCGTATTCGCACCGACAC | 0.178 ± 0.16 | -3 ± 0.31 |
| ACATTTGTCGATACAACCCTAAAATGATAATTACACCCATAAATTGATCATTATCACCCCCAATTTAACTATAACGCTCTGATCATAGTCAGACCAACATTGCTACGACCCGTATTCGCACCGACAC | 0.684 ± 0.37 | -2.5 ± 0.47 |
| ACATTTGTCGATCCAACCATAAAATGATAATTACACCCATAAATGGATAATTATCACACCCAATTTAACTATAACGCTCTGATCATAGTCAGACCAACATTGCTACGACCCGTATTCGCACCGACAC | 1.38 ± 0.094 | -1.4 ± 0.23 |
| ACATTTGTCGATCCAACCATAAAATGATAATTACACCCATAAATGGATCATTATCACACCCAATTTAACTATAACGCTCTGATCATAGTCAGACCAACATTGCTACGACCCGTATTCGCACCGACAC | 0.888 ± 0.17 | -2.08 ± 0.19 |
| ACATTTGTCGATCCAACCATAAAATGATAATTACACCCATAAATTCATAATTATCACACCCAATTTAACTATAACGCTCTGATCATAGTCAGACCAACATTGCTACGACCCGTATTCGCACCGACAC | 0.641 ± 0.68 | -2.45 ± 0.51 |
| ACATTTGTCGATCCAACCATAAAATGATAATTACACCCATAAATTCATCATTATCACACCCAATTTAACTATAACGCTCTGATCATAGTCAGACCAACATTGCTACGACCCGTATTCGCACCGACAC | 1.38 ± 0.015 | -2.47 ± 0.39 |
| ACATTTGTCGATCCAACCATAAAATGATAATTACACCCATAAATTGATAATTATCACACCCAATTTAACTATAACGCTCTGATCATAGTCAGACCAACATTGCTACGACCCGTATTCGCACCGACAC | 2.2 ± 0.23 | -0.969 ± 0.28 |
| ACATTTGTCGATCCAACCATAAAATGATAATTACACCCATAAATTGATCATTATCACACCCAATTTAACTATAACGCTCTGATCATAGTCAGACCAACATTGCTACGACCCGTATTCGCACCGACAC | 2.167 ± 0.0082 | -1.61 ± 0.25 |
| ACATTTGTGGATACAACCATAAAACGATAATTACACCCATAAATGGATAATTATCACACCCAATTTAACTATAACGCTCTGATCATAGTCAGACCAACATTGCTACGACCCGTATTCGCACCGACAC | 1.3 ± 0.17 | -1.46 ± 0.2 |
| ACATTTGTGGATACAACCATAAAACGATAATTACACCCATAAATGGATCATTATCACACCCAATTTAACTATAACGCTCTGATCATAGTCAGACCAACATTGCTACGACCCGTATTCGCACCGACAC | 0.737 ± 0.25 | -1.81 ± 0.3 |
| ACATTTGTGGATACAACCATAAAACGATAATTACACCCATAAATTCATAATTATCACACCCAATTTAACTATAACGCTCTGATCATAGTCAGACCAACATTGCTACGACCCGTATTCGCACCGACAC | 0.933 ± 0.13 | -2.15 ± 0.21 |
| ACATTTGTGGATACAACCATAAAACGATAATTACACCCATAAATTCATCATTATCACACCCAATTTAACTATAACGCTCTGATCATAGTCAGACCAACATTGCTACGACCCGTATTCGCACCGACAC | 1.17 ± 0.22 | -2.23 ± 0.37 |
| ACATTTGTGGATACAACCATAAAACGATAATTACACCCATAAATTGATAATTATCACACCCAATTTAACTATAACGCTCTGATCATAGTCAGACCAACATTGCTACGACCCGTATTCGCACCGACAC | 2.04 ± 0.26 | -1.13 ± 0.22 |
